The results in this text go back to paper PMC6358683 (Proceedings of the National Academy of Sciences of the …, 2019).

To fix the notation:
B1: C05 V110P (antibody, V domains shown)
VH: QVQLQESGGGLVQPGESLRLSCVGSGSSFGESTLSYYAVSWVRQAPGKGLEWLSIINAGGGDIDYADSVEGRFTISRDNSKETLYLQMTNLRVEDTGVYYCAKHMSMQQVPSAGWERADLVGDAFDVWGQGTMVTVSS
VL: DIQLTQSPSSLSASVGDRVTLTCQASQDIRKFLNWYQQKPGKGPKLLIYDASNLQRGVPSRFSGGGSGTDFTLIISSLQPEDVGTYYCQQYDGLPFTFGGGTKVVIK
B2: C05 A117E (antibody, V domains shown)
VH: B1 VH with P111V, A118E
VL: B1 VL
B3: C05 V110P-A117E (antibody, V domains shown)
VH: B1 VH with A118E
VL: B1 VL

Changes are numbered by the printed parent chain. In names and notes the source's numbering stands.

For the first assay, the target named is HA of A/Solomon Islands/03/2006 (Influenza A virus A/Solomon …, UniProt A7Y8I1, strain). Description: ELISA. On the technique in general: In an ELISA, binding on a coated surface is turned into a signal by an enzyme label.
For B1, the binding result is “binds”.
The same measure, in the same setting: the same measure for B2: “binds”; for B3: “binds”.

Another assay deals with HA of A/Thailand/CU44/2006 (Influenza A virus A/Thailand/CU44/2006 …, UniProt A7LI25, strain). Description: ELISA.
Regarding B1, the binding result is “binds”.
As for B2, the binding result is listed as “binds”.
The same measure, in the same setting: for B3 the value was “binds”.
